Laboratory results taken from the DeepSol protein solubility set.

Experiment: soluble on expression in E. coli; label from the status in PepcDB or PDB records

| Sequence | soluble on expression in E. coli |
| --- | --- |
| MAKRILCFGDSLTWGWVPVEDGAPTERFAPDVRWTGVLAQQLGADFEVIEEGLSARTTNIDDPTDPRLNGASYLPSCLATHLPLDLVIIMLGTNDTKAYFRRTPLDIALGMSVLVTQVLTSAGGVGTTYPAPKVLVVSPPPLAPMPHPWFQLIFEGGEQKTTELARVYSALASFMKVPFFDAGSVISTDGVDGIHFTEANNRDLGVALAEQVRSLL | soluble |
| MAKSRTIYVCAECGGTSLKWQGKCPHCSAWNTLEETVESAASSAGGHRYAPLAAASPVRSLSEIEARETPRQPTGLDEFDRVLGGGLVAGAVVLIGGDPGIGKSTLLLQALASLSATTKVLYVTGEESAEQVALRARRLGLQTGNVDLLAEIRLEAIQAAVSEQKPTVAVIDSIQTLYSGELTAAPGSVSQVRECAAQLTRLAKQTGIAIVMIGHVTKDGALAGPRVLEHIVDTVLYFEGDTHSSFRLVRAFKNRFGAVNELGVFAMTDRGLRGVANPSALFLSQHQQQVAGSCVLATQEGTRPLLVEVQALVDTSHAPNPRRLTVGLEGNRLAMLLAVMHRHAGVSTYDQDVFVNAVGGVRITEPAADLPVLLAIMSSLRDKPLPAGLVAFGEIGLAGEIRPAPRGQERLREAAKLGFSVALIPKANAPRQPIEGLEIWAVDRLDAALDKLRLEHHHHHH | not soluble |
| MAKVLVLYYSMYGHIETMARAVAEGASKVDGAEVVVKRVPETMPPQLFEKAGGKTQTAPVATPQELADYDAIIFGTPTRFGNMSGQMRTFLDQTGGLWASGALYGKLASVFSSTGTGGGQEQTITSTWTTLAHHGMVIVPIGYAAQELFDVSQVRGGTPYGATTIAGGDGSRQPSQEELSIARYQGEYVAGLAVKLNG | soluble |
| MAKVRIYQLAKELGMETQELLELLDQMGVAYKSHASTLEEKDAEAVRELVKEQRGLQEKLAEEERRKSLPRRPPVVVIMGHVDHGKTTLLDYLRKSRIAEKEAGGITQHVGAFEVKTPQGTVVFIDTPGHEAFTTIRQRGAKVADIAVIVIAADDGIMPQTEEAIAHAKAAGAKLIFAINKIDLPQADPEKVKRQLMERGFVPEEYGGDAIVIPISAKTGQGVQDLLEMILLLAELEDYRADPNAEPRGVILESKLDKQAGIIANMLVQEGTFRVGDYVVAGEAYGRIRAMMDADGNQRKEAGPGSAVQVLGFQELPHAGDVVEWVPDLEAAKEIAEERKEERKAREEEEKARRPRTMAELLRAMQEEGRKELNLILRADTQGSLEAIQHILARESTEDVKINILLAQVGAPTESDVLLAQTANAAILAFGVNPPGSVKKKAEEKGVLLKTFRIIYDLVDEVRNMVKGQREPQYKEEVLGQAEVRAIFRLPTGKQVAGCMVTQGRIPRNAEVRVLRDGQVIWQGRIASLKRFKEDVREVAQGYECGIGLDGFDDFREGDVIEAFQMVEVPA | soluble |
| MAKYQTIEAAVRSEFGKGSARRARVAGQIPAVVYGADVESNLHVTIDHRTFAALVRQEGVNAVLELDIEGQKQLTMIKHIDQNVLTFHIDHLDLLAI | not soluble |
| MAKYSEQFKLTVVKAYLAGNIGFRKVSSQFSIDSSLLRRWVANYKSHGHTGHRKPGLRYSEAFKRSVLEHKREHGLSLRQTAAHFGIGDPGQIVIWEQQHYSNDLAPYVPKRRKSVAMPKKPYPTAPVIDDDTQKTRDQLMAELEYLRMENAYLKKLEELKEQQRRQKKKPLEHHHHHH | soluble |
| MALACTDSANSTFSRVDSPTSGPSDQLTTHDLDRHIEKLMRCELIAEQDVKTLCAKAREILAEEGNVQVIDSPVTICGDIHGQFYDLMELFKVGGPVPNTNYLFLGDFVDRGFYSVETFLLLLALKARYPDRMMLIRGNHESRQITQVYGFYDECLRKYGNASVWKHCTEVFDYLSLAAVIDGKVFCVHGGLSPSISTMDQIRVIDRKQEVPHDGPMCDLLWSDPEEGNVGWGLSPRGAGYLFGADASKTFCETNGVDLICRAHQLVMEGYKWHFNEKVLTVWSAPNYCYRCGNVAAILELDENLNKEFTIFEAAPQENRGAPAKKPHADYFL | not soluble |
| MALATRNLKVIHIKRIENSRSSLIRANHGSKGIIHLILDQAPYHRADKVKEKAKKLVIHLNYLPPYSPNLNPIERLWKVMNEKVRNNRFFNSAKDFRREIERFFTEILPDIGASLGQSINDNFQLEHHHHHH | not soluble |
| MALIELRHVKKEFSGKAGKVTALKDIDLTVESGDIYGIIGYSGAGKSTLVRLLNGLETPTEGEVEIQGQDIALLPNKELRNFRKKIGMIFQHFNLLWSRTVLENIMLPLEIAGVPKQNRKSRAEELIKLVGLEGRETAYPSQLSGGQKQRVGIARALANNPDILLCDEATSALDPQTTDEVLELLLKINQELNLTVVLITHEMHVIRKICNRVAVMEYGEIVEEGKVIDIFKKPQTEIAKRFIQQEADKNIEETELVVEEMLEQYPNGKIVRLLFHGEQAKLPIISHIVQEYQVEVSIIQGNIQQTKQGAVGSLYIQLLGEEQNILAAIEGLRKLRVETEVIGNE | not soluble |
| MALMNILPFARFLLDQAVNEGDIAVDATVGNGHDTVYLAERVGDFGHVFGFDIQPEAITAASARLAEHGLCGRATLFERSHSELLEALPADVHGRIAGAVFNLGYLPGGNKQIVTQPESTIEAVRQLLSVMKPGGVIVLVVYHGHPEGKRERDALLDYVRSLDQRRVHALKYEFINRQNNPPFLIALENRADGGA | not soluble |
| MALNNFLTFQLLLLLLRVSSESPWIVAGDVSRIPINFLELAKSPEVFDSMVRIRRKIHENPELGYEEFETSKFIRSELDLIGVKYRFPVAITGIIGYIGTGEPPFVALRADMDALPIQEAVEWEHKSKNPGKMHACGHDGHVAMLLGAAKILQQHRQHLQGTVVLIFQPAEEGLSGAKMMREEGALKNVEAIFGIHLSPRTPFGKAASLAGSFMAGAGAFEAVITGKGGHAAIPQHTIDPVVAASSIVLSLQHLVSRETDPSDSKVVTVTKVNGGNAFNVIPDSITIGGTLRAFTGFTQLQERIKEIITKQAAVHRCNASVNLAPNGNQPMPPTVNNMDLYKKFKKVVRDLLGQEAFVEAVPEMGSEDFSYFAETIPGHFSLLGMQDETQGYASSHSPHYRINEDVLPYGAAIHATMAVQYLKDKASKGSVSGFHDEL | soluble |
| MALNVNRAVADPFYRYKMPKLSAKVEGKGNGIKTVISNMSEIAKALERPPMYPTKYFGCELGAQTNFDAKNERYIVNGEHDANKLQDILDGFIKKFVLCKSCENPETQLFVRKNNIKSKCKACGCSFDIDLKHKLSTFIMKNPPKIDVDFSKAEQKNGKKTSGADAAAAVAADIIHNSDKGSSNDDDDDDWEPEPVEPNGMLSAGMGKLVLDKDLEKSEEQRLDMLHTFFLKAKEEDRISDAKGQTALRDEAERLELKQKASLLLANVFLDEKVITDKQISKHRNLLLRFTLNDKKAQRYLLGGVEQVIHKHEAELLSKSAHIIKSLYDEDVCEEDSLISWGEKPSSKYVSKSFAKKIIENSQPVLNWLKEAEEETEEESDDEIAFGGDVKESEFLRQQKEKAAREAQQKSAKATNGNAAAASGANDEEDLDIDDI | soluble |
| MALPPGLMVVEEIISSEEEKMLLESVDWTEDTDNQNSQKSLKHRRVKHFGYEFHYENNNVDKDKPLSGGLPDICESFLEKWLRKGYIKHKPDQMTINQYEPGQGIPAHIDTHSAFEDEIVSLSLGSEIVMDFKHPDGIAVPVMLPRRSLLVMTGESRYLWTHGITCRKFDTVQASESLKSGIITSDVGDLTLSKRGLRTSFTFRKVRQTPCNCSYPLVCDSQRKLEHHHHHH | soluble |
| MALPRITQKEMTEREQRELKTLLDRARIAHGRVLTNSETNSIKKDYIDKLMVEREAEAKKARQLKKKQAYKPDPEASFSWSANTSTRGRR | soluble |
| MALTSVSVYELSRLGPPQQPVRRRSNSTKVRRKDAELGSVDRKRNPKRNQIQPQHNESITITYMGRPRSPSVDLPTSPPIPSVIRQRRSSSTVAKKLPQSASNPSFLRKQGSSSSLSNGLWTDCIEVVNEIGVMAKMESRKIRRLRMAVYRRVRISDDEEMVLTASRALSKCHGWTLDTCHDYLPVIIDNIISMDTSNRIIAAEGLAAIADSLGERLVKFAGMNSHRIGVDIAAEERSEKAKACIQLLRSVVRKRDWYYRHLDVESIDRLDATMERLKSI | not soluble |
| MALTVSLLDKLIDSDPTTREEKDFPVSQQHMLNGLLRDLESMLNSRIGWKNIHEDFLEVRYSILNYGLPDFSSMPYSSQDGQSQLCDIVYEAIREFEPRLRNPHVQISDEKNAIDRTLRLEISATCLIDNDIHELRFNSEVEPVNLGMKLSRAK | not soluble |
| MALVPYEESAAIGLQKFHKPLATFSFANHTIQIRQDWRQLGVAAVVWDAAVVLSMYLEMGAVELRGCSAVELGAGTGLVGIVAALPGAQVTITDRKVALEFLKSNVEANLPPHIQPKAVVKELTWGQNLESFSPGEFDLILGADVIYLEDTFTDLLQTLGHLCSNNSVILLACRIRYERDSNFLTMLERQFTVSKVHYDPEKDVHIYKAQKRNQREDL | not soluble |
| MAMAALKDLVEFQLKNAQELVTVLEAEKVAITSRISVDIESIAKQKLTLVNQLQQTDQRIAKHPHVASLTEDTYLNELVSQIRSIIMDCQQANLINGDALARAQLSFNKLNNLMQQSHGKIGMTYSATGKTHTISTLGTNIKA | not soluble |
| MAMHTWFECKIRYEKTMENGMQKKVTEPYLVDALSFTEAEARIIEEMTPFITGEFTVSDIKRANYSELFPSDEESADRWFKCKLIFITLDEKSGAEKKTSTQVLVQAADLRDAVKKLDEGMKGTMADYQIGMVSETPLMDVYPYSAGPNDKPEFDPSKA | not soluble |
| MAMITGGELVVRTLIKAGVEHLFGLHGSHIDTIFQACLDHDVPIIDTRHEAAAGHAAEGYARAGAKLGVALVTAGGGFTNAVTPIANAWLDRTPVLFLTGSGALRDDETNTLQAGIDQVAMAAPITKWAHRVMATEHIPRLVMQAIRAALSAPRGPVLLDLPWDILMNQIDEDSVIIPDLVLSAHGARPDPADLDQALALLRKAERPVIVLGSEASRTARKTALSAFVAATGVPVFADYEGLSMLSGLPDAMRGGLVQNLYSFAKADAAPDLVLMLGARFGLNTGHGSGQLIPHSAQVIQVDPDACELGRLQGIALGIVADVGGTIEALAQATAQDAAWPDRGDWCAKVTDLAQERYASIAAKSSSEHALHPFHASQVIAKHVDAGVTVVADGALTYLWLSEVMSRVKPGGFLCHGYLGSMGVGFGTALGAQVADLEAGRRTILVTGDGSVGYSIGEFDTLVRKQLPLIVIIMNNQSWGATLHFQQLAVGPNRVTGTRLENGSYHGVAAAFGADGYHVDSVESFSAALAQALAHNRPACINVAVALDPIPPEELILIGMDPFGSHHHHHH | soluble |
| MAMKRREMLSLCGKSVIALGCGGLPAILRAQGRFPSKALTYVVAYTPGSANDILVRILAPELGTQLGQSIIVDNKPGAGGSIGMAAVAQSKADGYTLGLGSTATMAINRALYKNLPYDPLRDFESVVKFASTANVLVVPAGGPAKTLADLKPRDGKPLMFSSPGNGTTQHLAGVLFSSTTKLPTEHVPYRGPAESVMAVASGEVDFSLASLPSALAQIRAGRLRVLGCTSLKPPSSLPQAVSLAEQGLPGFERTEVWFGLVVPSGTPDQARLALEQASVQVLGKQDVREKLEQAGYQPANPQSEGKFDPFVREQVAFWADLVKQAGASIDLEHHHHHH | soluble |
| MAMQLEICANSAASCRQAELGGATRVELCAGIPEGGTTPSAGEMAVARSLIAIPIHVIIRPRAGDFVYSSEEIEAMCYDIRVVRSLGMEGVVFGCLTPEGGYDEEANSRLLKEAQGMQLTFHRAFDVCAAPFEMLEKLIAAGFHRVLTSGCAPTALEGKDMIGALNKQATGRIGIMAGCGIRLGNIETLARHTGITQFHSSLRHDIPSSMRFRRPEVSMGGTVKIDEYSRPETSADMVRQAVDILQGILEHHHHHH | not soluble |
| MANDGYFEPTQELSDETRDMHRAIISLREELEAVDLYNQRVNACKDKELKAILAHNRDEEKEHAAMLLEWIRRCDPAFDKELKDYLFTNKPIAHE | soluble |
